Data as given in patent US6451313.
Several values for one entry are separate records, joined by “and”; a condition that tells them apart may be missing. Equal values may be shown once.

Assays:
[1] = molecular target: HIV-1IIIB gp120/gp41 stably expressed on CHO cells (HIV-1 IIIB); experiment: cell-based or functional assay
[2] = molecular target: recombinant HIV-1 gp120 from the laboratory-adapted strain HIV-1LAI (HIV-1 LAI) (UniProt P03377); experiment: modified ELISA, gp120 captured on plate, 50% maximal binding
[3] = molecular target: recombinant HIV-1 gp120 from the primary isolate HIV-1JR-FL (HIV-1 JR-FL) (UniProt P20871); experiment: as above

“CD4-IgG2 chimeric heterotetramer (Fc fusion)” was tested, and the IC50 of syncytium inhibition (CHO cells expressing HIV-1IIIB gp120/gp41 with C8166 cells) [1] was 9 nM and 1.81 µg/ml, the Relative Potency (mass), relative to sCD4, syncytium inhibition [1] was 5.1 fold and the Relative Potency (molarity), relative to sCD4, syncytium inhibition [1] was 22.2 fold. The EC50 [2] was 1250 pM and the EC50 [3] was 640 pM.
